Laboratory results as given in the supplement of paper PMC6757056.
± gives the standard deviation of the averaged measurements.

B1: library; a variant is named by its letters at N, in order (parent)
chain: GCUGUCACCGGUGUAUUACCCUAGUGGUCGACCGGUCUGAUGAGUCUNNNNNNAGACGAAACAGC

What was measured:
[1] = variants of: B1; test: normalized RNA/DNA level with ligand (relative to sTRSVctl = 100) (log10 (% of sTRSVctl)); ligand: hypoxanthine (xanthine aptamer); higher = less ribozyme self-cleavage, higher mRNA level; details: ligand concentration (+) RNA-Seq: 5 mM, HEK293T, reporter: mCherry (pCS4076), ligand present: yes
Procedure, shortened: (§1)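 Library plasmids carrying ribozyme switches linked to mCherry, or to eGFP in some ligand experiments, were transfected into HEK293T at 4 µg per 6-well well, with any ligand added 1 h earlier. Seventy-two hours on, total RNA was extracted with EDTA and reverse-transcribed, amplified, barcoded and sequenced. RNA level was RNA over DNA reads normalized to a spiked-in non-cleaving sequence or to the top sequences, then scaled and log-transformed. The top set was 25 sequences, the transform was ×100 and log10, and sequences needed ≥100 DNA reads.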

[2] = variants of: B1; test: normalized RNA/DNA level without ligand (relative to sTRSVctl = 100) (log10 (% of sTRSVctl)); ligand: hypoxanthine (xanthine aptamer); higher = less ribozyme self-cleavage, higher mRNA level; details: HEK293T, reporter: mCherry (pCS4076), ligand present: no
Procedure, shortened: as §1

Row | Variant | normalized RNA/DNA level with ligand (log10) [1] | normalized RNA/DNA level without ligand (log10) [2]
1 | GAGGUC | 2 ± 0.043 | 1.843 ± 0.016
2 | GAGGUA | 1.862 ± 0.011 | 1.673 ± 0.0085
3 | GAGGUU | 1.97 ± 0.035 | 1.86 ± 0.023
4 | AAGGCA | 1.94 ± 0.035 | 1.64 ± 0.043
5 | AAGGCU | 1.9 ± 0.032 | 1.83 ± 0.05
6 | AAGGCC | 1.96 ± 0.066 | 1.9104 ± 0.0016
7 | UAGUAA | 1.939 ± 0.016 | 1.77 ± 0.022
8 | UAGUAU | 1.93 ± 0.041 | 1.761 ± 0.015
9 | UAGUAC | 1.94 ± 0.031 | 1.81 ± 0.035
10 | UAGUGC | 1.95 ± 0.038 | 1.712 ± 0.014
11 | CAGUCC | 1.984 ± 0.0083 | 1.88 ± 0.024
12 | CAGUCA | 1.93 ± 0.025 | 1.6768 ± 0.0013
13 | CAGUCU | 1.98 ± 0.005 | 1.792 ± 0.016
14 | CAGUCG | 1.98 ± 0.025 | 1.888 ± 0.0091
15 | CAGCAC | 1.94 ± 0.035 | 1.81 ± 0.034
16 | CAGCAG | 1.89 ± 0.019 | 1.68 ± 0.11
17 | CAGCAA | 1.885 ± 0.01 | 1.637 ± 0.014
18 | AAGUGC | 1.879 ± 0.018 | 1.53 ± 0.036
19 | AAGCCC | 1.97 ± 0.032 | 1.9 ± 0.041
20 | AAGCCU | 1.96 ± 0.02 | 1.85 ± 0.059
21 | UAUAAA | 1.89 ± 0.025 | 1.77 ± 0.04
22 | UAUAAC | 1.9 ± 0.025 | 1.829 ± 0.017
23 | UAGCCU | 2 ± 0.037 | 1.953 ± 0.006
24 | UAGCCA | 1.93 ± 0.032 | 1.91 ± 0.082

Row | Variant | normalized RNA/DNA level with ligand (log10) [1] | normalized RNA/DNA level without ligand (log10) [2]
25 | UAGCCG | 1.982 ± 0.016 | 1.728 ± 0.0043
26 | UAGCCC | 1.956 ± 0.018 | 1.885 ± 0.0052
27 | CAGGAG | 1.91 ± 0.022 | 1.473 ± 0.012
28 | CAGGAC | 1.88 ± 0.063 | 1.782 ± 0.01
29 | GAGCGU | 1.915 ± 0.0047 | 1.647 ± 0.0019
30 | CAGCUG | 1.946 ± 0.019 | 1.89 ± 0.028
31 | CAGCUA | 1.903 ± 0.012 | 1.65 ± 0.056
32 | CAGCUU | 1.954 ± 0.0095 | 1.86 ± 0.027
33 | UAGCAC | 1.927 ± 0.0061 | 1.8 ± 0.018
34 | UAGCAU | 1.91 ± 0.026 | 1.772 ± 0.0045
35 | CAGGUU | 1.975 ± 0.0057 | 1.86 ± 0.0041
36 | CAGGUC | 1.94 ± 0.015 | 1.874 ± 0.011
37 | CAGGUG | 1.9 ± 0.025 | 1.77 ± 0.03
38 | AAGCAU | 1.88 ± 0.027 | 1.705 ± 0.0018
39 | AAGCAC | 1.89 ± 0.027 | 1.69 ± 0.047
40 | CAGUUC | 1.91 ± 0.11 | 1.81 ± 0.031
41 | CAGUUU | 1.95 ± 0.053 | 1.79 ± 0.018
42 | CAGUUA | 1.87 ± 0.055 | 1.49 ± 0.035
43 | CAGUUG | 1.93 ± 0.046 | 1.801 ± 0.015
44 | UAGGCU | 1.957 ± 0.013 | 1.89 ± 0.027
45 | UAGGCG | 1.892 ± 0.01 | 1.67 ± 0.037
46 | UAGGCA | 1.905 ± 0.01 | 1.812 ± 0.0025
47 | AAGUUC | 1.9 ± 0.052 | 1.787 ± 0.0052
48 | UAGGGC | 1.962 ± 0.01 | 1.88 ± 0.057

Row | Variant | normalized RNA/DNA level with ligand (log10) [1] | normalized RNA/DNA level without ligand (log10) [2]
49 | UAGGGA | 1.861 ± 0.011 | 1.49 ± 0.035
50 | CAGAUA | 1.88 ± 0.052 | 1.57 ± 0.043
51 | CAGAUC | 1.98 ± 0.089 | 1.91 ± 0.032
52 | CAGAUG | 1.94 ± 0.03 | 1.808 ± 0.011
53 | CAGAUU | 1.96 ± 0.024 | 1.768 ± 0.015
54 | UAGUCG | 1.924 ± 0.013 | 1.737 ± 0.0043
55 | UAGUCU | 1.96 ± 0.028 | 1.88 ± 0.019
56 | GAGUCC | 2.015 ± 0.017 | 1.853 ± 0.013
57 | GAGUCU | 1.96 ± 0.026 | 1.84 ± 0.01
58 | GAGUCG | 1.84 ± 0.019 | 1.38 ± 0.02
59 | AAUAAC | 1.919 ± 0.0067 | 1.81 ± 0.029
60 | GAGGGA | 1.9 ± 0.053 | 1.52 ± 0.022
61 | GAGGGU | 1.93 ± 0.032 | 1.689 ± 0.014
62 | GAGGGG | 1.814 ± 0.015 | 1.34 ± 0.033
63 | UAGAUA | 1.917 ± 0.0088 | 1.82 ± 0.071
64 | UAGAUU | 1.93 ± 0.027 | 1.866 ± 0.017
65 | UAGAUC | 1.964 ± 0.012 | 1.955 ± 0.018
66 | AAGUCC | 1.893 ± 0.016 | 1.81 ± 0.072
67 | CAGGGC | 1.99 ± 0.056 | 1.84 ± 0.052
68 | CAGGGA | 1.95 ± 0.04 | 1.781 ± 0.014
69 | CAGGGU | 1.884 ± 0.017 | 1.75 ± 0.021
70 | GAGCUC | 1.99 ± 0.045 | 1.91 ± 0.034
71 | GAGCUU | 1.92 ± 0.1 | 1.846 ± 0.0057
72 | AAGGAC | 1.905 ± 0.017 | 1.648 ± 0.012

Row | Variant | normalized RNA/DNA level with ligand (log10) [1] | normalized RNA/DNA level without ligand (log10) [2]
73 | AAGCUU | 1.94 ± 0.062 | 1.86 ± 0.023
74 | AAGCUA | 1.91 ± 0.021 | 1.68 ± 0.056
75 | AAGCUC | 1.975 ± 0.002 | 1.959 ± 0.01
76 | CAGCGC | 2.01 ± 0.038 | 1.847 ± 0.007
77 | CAGCGA | 1.94 ± 0.027 | 1.79 ± 0.035
78 | GAGCAU | 1.944 ± 0.018 | 1.72 ± 0.022
79 | CAUAAC | 1.9194 ± 0.0019 | 1.83 ± 0.056
80 | CAUAAG | 1.92 ± 0.016 | 1.71 ± 0.019
81 | UAGCGU | 1.88 ± 0.055 | 1.46 ± 0.12
82 | UAGCGC | 1.95 ± 0.023 | 1.85 ± 0.057
83 | UAGCUU | 2.003 ± 0.015 | 1.84 ± 0.024
84 | UAGCUG | 1.944 ± 0.011 | 1.77 ± 0.02
85 | UAGCUA | 1.96 ± 0.078 | 1.884 ± 0.0057
86 | UAGCUC | 1.98 ± 0.034 | 2.03 ± 0.038
87 | CAGUAC | 1.898 ± 0.0032 | 1.668 ± 0.015
88 | CAGUAA | 1.855 ± 0.012 | 1.53 ± 0.081
89 | AAGCGC | 1.89 ± 0.051 | 1.6 ± 0.039
90 | UAGGAC | 1.934 ± 0.0064 | 1.83 ± 0.037
91 | UAGGAG | 1.872 ± 0.018 | 1.41 ± 0.04
92 | UAGUUC | 1.943 ± 0.0072 | 1.87 ± 0.008
93 | UAGUUA | 1.942 ± 0.013 | 1.861 ± 0.0033
94 | UAGUUU | 1.92 ± 0.04 | 1.86 ± 0.023
95 | UAGUUG | 1.93 ± 0.053 | 1.707 ± 0.0035
96 | GAGCCC | 1.99 ± 0.053 | 1.906 ± 0.013

Row | Variant | normalized RNA/DNA level with ligand (log10) [1] | normalized RNA/DNA level without ligand (log10) [2]
97 | GAGCCG | 1.85 ± 0.034 | 1.44 ± 0.021
98 | GAGCCU | 2.01 ± 0.028 | 1.94 ± 0.024
99 | AAGGUC | 1.95 ± 0.08 | 1.89 ± 0.016
100 | GAGGAU | 1.955 ± 0.019 | 1.7 ± 0.074
101 | UAGGUU | 1.961 ± 0.0077 | 1.85 ± 0.015
102 | UAGGUA | 1.96 ± 0.033 | 1.84 ± 0.036
103 | GAUAAC | 1.92 ± 0.079 | 1.712 ± 0.0033
104 | GAGGCC | 2.03 ± 0.031 | 1.93 ± 0.023
105 | CAGCCG | 1.947 ± 0.0075 | 1.88 ± 0.071
106 | CAGCCA | 1.9708 ± 0.0019 | 1.78 ± 0.051
107 | CAGCCU | 2.039 ± 0.0086 | 1.91 ± 0.038
108 | CAGCCC | 2.03 ± 0.052 | 1.94 ± 0.023
109 | GAGUUA | 1.891 ± 0.0028 | 1.64 ± 0.056
110 | GAGUUC | 1.92 ± 0.093 | 1.86 ± 0.053
111 | CAGUGC | 1.96 ± 0.0096 | 1.814 ± 0.0038
112 | CAGGCU | 1.938 ± 0.0094 | 1.919 ± 0.0073
113 | CAGGCG | 1.96 ± 0.035 | 1.837 ± 0.0025
114 | CAGGCC | 2 ± 0.027 | 2 ± 0.032
115 | CAGGCA | 1.912 ± 0.008 | 1.68 ± 0.069
116 | GAGAUU | 1.92 ± 0.041 | 1.82 ± 0.03
